The results in this text go back to the supplement of paper PMC12042874.

The nature of this data set: amyloid nucleation score (Sup35N fusion, yeast selection) (log enrichment); library NNK2; higher = more nucleation; inactive = no reads after selection. Summed up: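 Peptides of 20 random codons fused to Sup35N were expressed in psi-negative yeast, induced 24 hours with 100 μM copper sulfate, then grown 7 days at 30°C on medium lacking adenine and uracil. Input and output plasmid inserts were Illumina-sequenced. Nucleation score is the DiMSum log enrichment of output over input reads, centred on the mode score of non-aggregating sequences, excluding sequences with under 100 input reads. Random libraries had three technical output replicates.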

± gives the uncertainty stated by the source.

Turning to FFRGDVQYWRLILKYLCLLM, the amyloid nucleation score was -1.28 ± 0.49.
The result for ANKTSPICSCVFNEL reads 6.3 ± 0.088; that for GNRFNRRLWSQATILEF, -0.166 ± 0.76.
To SSNSANVILASYEDYRRVNP belongs -0.526 ± 0.79; to NFSNVFWKFISRWLTAF, “inactive”; to LISEVALGFAPMKIVRGFLD, -0.284 ± 0.56.
To AYYSVSC belongs 3 ± 0.11.
As for STGIGDNATFSYRISRYSVC, the amyloid nucleation score was -0.492 ± 0.39.
As to SMRVYHSHLNWFH, the amyloid nucleation score was 6.63 ± 0.063.
In the case of PRPFGKNWVKKDLNCLHKLN, the amyloid nucleation score was -0.251 ± 0.35.
In turn, GYEASHSRFASSHLTPWGKR registered an amyloid nucleation score of 1.74 ± 0.32.
To HHIRSFVETGGDTWWGRCSR belongs 1.05 ± 0.21; to RIFTFLSVSHPN, 4.53 ± 0.053; to SDKGYCSTFNMRQALWDYGQ, 0.081 ± 1.1.
SWGSVRNRMCMSGGRKSSDA: the amyloid nucleation score result is “inactive”.
To PFWVGNGKQGVFGKFDCYVI belongs -1.19 ± 0.34; to DFSAFNEGHQINHLIQGSV, -1.35 ± 0.62.
As to GVCVQGMFSVSYATILYKVA, the amyloid nucleation score amounted to 1.02 ± 0.2.
FVSLTLCCYGEGDVPLREVQ had an amyloid nucleation score of 1.9 ± 0.14.
The result for GGTVNYFNTLQRSMGNVESV reads 3.66 ± 0.046.
To TFAQYPSLGNSFSGWGYCVK belongs -2.02 ± 0.75; to DGGREPIVFYSQNYVCNKFV, 6.775 ± 0.048.
The result for VPKVKNLDWSSELAKFKLEV reads 2.95 ± 0.1; that for SVYRFFAKSKMKCWGLHNGG, -0.63 ± 0.55.
For RAIDRRKVFARYVFWSFSWT, the amyloid nucleation score is -0.141 ± 0.33.
CYFSDPVHLENPSINSISFW: the amyloid nucleation score result was “inactive”.
To YLGCRDPTRCFLLVHVPDLY belongs -0.127 ± 1; to VKTKAVTRVMIP, 0.589 ± 0.35; to RMLGFD, -0.147 ± 1.1.
The result for FHPPTGPPYINEMIGASTDR reads -0.069 ± 0.27; that for QRSAKLRALPEGIKHKKWLM, -0.108 ± 1.1.
As for NYGVFTSIHVCYDVINVVRV, the amyloid nucleation score was -0.661 ± 1.1.
The result for NLRVSFGREDCL reads -0.347 ± 0.55; that for GTVLAIRQLVSRCSGGVVGG, 1.28 ± 0.24.
In the case of AYVIRAKEC, the amyloid nucleation score came out at 0.162 ± 0.39.
To SGGVR belongs 0.94 ± 0.32; to VSAELWIQSSVTSAYIIWQL, 0.98 ± 0.81; to RWGMRYIMDWY, 0.007 ± 1.1.
The result for TWSHTPNALWMDALRSTLQA reads 1.05 ± 0.38.
To YNKLGCTARFTRAMWTFCGV belongs 0.066 ± 1; to FLYLNAKSVRASIVWYEVKL, 8.232 ± 0.048.
NAQYGRCSLWCPCPTVWTA: the amyloid nucleation score was determined as 2.24 ± 0.25.
Take CLYLACIEGWLP: the amyloid nucleation score was determined as 3.24 ± 0.056.
To EVEIVAWFGLHHSWWH belongs 3.25 ± 0.08; to ICRDWVDDNVFKIMGRTQRS, 0.099 ± 0.45; to PTGPNSGNCIVLCPSDKSHE, -0.363 ± 1.1.
To RVDVLIE belongs 9.82 ± 0.048.
The result for VYPVSPIMKGV reads 0.163 ± 0.49; that for ALQDMTI, -0.176 ± 0.36; that for VEFVVPKI, -0.586 ± 1.1.
For the substance MELCYVILWYYIFSCGWWRS, the amyloid nucleation score entry was “inactive”.
To FACNLGFMTSSFMRWSNTSA belongs 0.356 ± 0.33.
To VVYLEIVTRGATGYLVCLPC belongs -0.437 ± 0.6; to TYLNLLSNAMNVAWFS, 2.83 ± 0.19.
The result for SLAFNPISCAANLPFFHIQF reads 0.29 ± 0.77; that for VPVTGSNLPAVCKGHGVEYG, -0.045 ± 0.41.
The substance RKPRFIACMTSPCLALC displayed an amyloid nucleation score of 0.066 ± 0.5.
On to ILKIYVGQSSPLYFACLHIK, for which the amyloid nucleation score entry is “inactive”.
To EMYRCGWCLWMHNRLTATVR belongs 1.86 ± 0.28; to WSGWSQGDGLVQGQVMRAFV, -0.284 ± 0.79.
To VNVCWLKSATPNSCVDLVNI belongs 0.946 ± 0.6; to VTCASWYYGKISGLYACYRL, 0.641 ± 0.34.
To CNVWDVSGDTFVTYGKDDRG belongs 0.275 ± 0.25.
NNFRWNVMVCYAFQGYSGVK registered an amyloid nucleation score of 2.64 ± 0.068.
The result for RWHFDYRVKQV reads -0.058 ± 0.37; that for YMCRVYMSNSINDFDLPHLL, 2.06 ± 0.29; that for IPSRFPNFNR, -1.62 ± 0.55.
To LQANWNDGPVGSSICAACSL belongs -0.746 ± 0.76; to DAWYMDFLSCACWIHWR, 0.871 ± 0.45.
The result for GPLRNEASGIWKKPGQCMTD reads -0.813 ± 0.76; that for FFRVRPFISYYWHTLLSVLW, -1.24 ± 1.1; that for IDFSRQTYLNCKKSRSSLLS, -0.437 ± 0.61.
In the case of SSEIKRSWGYFLSLLWFYYR, the amyloid nucleation score was -0.696 ± 1.
The result for ELVVHFFLFIMGACLHVENQ reads -0.368 ± 1.
The result for HIEVSACTRFLILNIHLRII reads -1.46 ± 0.53; that for RTFYFYGRHR, -1.11 ± 1.1.
To FIVCALIKEHILTYPGKVFV belongs “inactive”; to THCFCGTNGWVMWGSPEGLA, 0.179 ± 0.55.
On to FTPIGIIMYSFFKRTFTFVT, for which the amyloid nucleation score was -1.06 ± 1.1.
The result for GSFSGKYPRHR reads -0.266 ± 1; that for FSEFIYLCTSLMDARQGMVP, -0.804 ± 1.1.
The result for LGHTH reads 1.06 ± 0.53.
The result for CFSSVIFAMIFVRNR reads 1.73 ± 0.21; that for LWAFHLNFVLSAVCLRRKNL, “inactive”; that for ARVIFAVSVLEFRVGYSQGA, 3.87 ± 0.086.
SLSWLWFLNSKSRMSTDISV: the amyloid nucleation score result is “inactive”.
Regarding IGSVDDLNLKRICNDLDTP, the amyloid nucleation score is 0.182 ± 0.79.
To FHPVWSLRKLFDCPDWTLAR belongs 1.23 ± 0.12; to RWDCGGGTNCSGENIWQGET, -0.083 ± 0.34.
Take LVLWKLQVCSPLTVLRTPYR: the amyloid nucleation score turned out to be 0.889 ± 0.28.
The result for RASASNR reads -0.559 ± 0.36; that for YNLNCHLFSAWTFNYKIAFL, 5.958 ± 0.043; that for PAIYILLWAYSRSSACWLTA, “inactive”.
The result for LMYVCSLNNPLFMYANLL reads 5.54 ± 0.084; that for WRYGNDYTFLIMDGC, -0.511 ± 0.37; that for VSDDHFINCFYGQVSQRKVK, “inactive”.
To YGKIL belongs -0.956 ± 1.
In turn, IYYDVFSVSCTFVKLGWIFL showed an amyloid nucleation score of 1.96 ± 0.077.
To FFSRTKYDSSRLKPWGMDIS belongs 0.523 ± 0.64; to NLLYKMTMWTKFGRLSSCCK, 0.001 ± 0.42; to MLCVFRVLPMLNWY, -0.257 ± 0.48.
To IFWTELCNPKFSFC belongs 9.439 ± 0.023.
The result for NYDGVVVEDNVVGTRTSVAG reads -0.007 ± 0.36; that for KFRCHGR, 0.785 ± 0.62; that for ICYKVLAMDLMLCMSGGVLV, 2.1 ± 0.092.
Substance NKMTF returned an amyloid nucleation score of 0.502 ± 0.44.
To VFGSVADMHM belongs “inactive”; to LSALCGIGCDCLPTLTKLIV, -0.089 ± 0.25.
For CRGTIWIAYSRYYYYRMNDF, the amyloid nucleation score entry is “inactive”.
For SPLYLTLCMTLQVYGSR, the amyloid nucleation score is 4.04 ± 0.073.
The result for ALNGFVYALLAGPGQRLIKP reads 1.36 ± 0.53; that for IVRNPKLMLSNGH, 0.907 ± 0.58; that for YTPHYLQCRLFCIPLRLNRS, -1.09 ± 0.49.
To REKVPYT belongs -0.428 ± 0.48; to FGQIRCWYTMICYGQDIGFT, 6.37 ± 0.047; to VVVPDGFRNYEYGNSTLFVI, -0.99 ± 1.1.
The result for LVKTVDYAALPRICDVGRGQ reads 3.96 ± 0.075; that for RKLGNLLPPEY, 0.499 ± 0.35; that for HHFTFQAAYFRNIPLESADE, 0.906 ± 0.23.
RFGSLVFFCTGFERSWHTSA yielded an amyloid nucleation score of 0.684 ± 0.44.
To REEGFS belongs -1.29 ± 0.54; to MVAFNTFSD, “inactive”; to VITSYVRRQCVKFCCGARCR, 8.347 ± 0.054.
The result for IDSDKEAFRTFLWTLDMYRL reads -0.536 ± 1; that for DVYVVIPNYGPQEWVSNYS, -0.341 ± 0.5; that for SISLLMICCDL, 8.511 ± 0.04.
The result for RSYIRFGNYVHYDQLWLFGG reads 3.04 ± 0.12; that for ERDSGPEYIVCIQVVIYLGM, 3.06 ± 0.052; that for FSIGGVKGEGSKFQGGSQMS, -0.12 ± 1.
With YYSLY, the amyloid nucleation score is -0.904 ± 0.36.
Substance AYHRWSTVLWILTYWTLRMC gave an amyloid nucleation score of 0.053 ± 1.1.
For NPTWVRCYWHFWFTVNGFQY, the amyloid nucleation score was -1.17 ± 1.1.
To ACFSSSLCFVGMERSRSHNF belongs 1.91 ± 0.13.
To LYFLV belongs 6.55 ± 0.085.
The result for VAFKSTLQVLVANKFG reads -0.627 ± 1; that for LWHGYGRFRVLSVVF, 3.53 ± 0.045; that for KKERPNMSWGDHY, -0.78 ± 1.
Consider AFYIRLIAREP, for which the amyloid nucleation score result is “inactive”.
To ICIVGRWYRASVFRVLEDYR belongs “inactive”.
